Results taken from the supplement of paper PMC10567573.
± gives the standard deviation.

Test: protein stability index of a GFP-peptide fusion (GPS, HEK-293T) (PSI 1-6); higher = more stable
Settings: c terminus: a fixed tail appended
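Further: 24-mer peptide tiles fused after GFP, lentivirally expressed, FACS-sorted into six equal bins by GFP/DsRed ratio, decoded by Illumina sequencing, PSI is the read-weighted mean bin number.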

| Sequence | protein stability index (treatment: DMSO) | protein stability index (treatment: MLN4924 1 uM, 8 h) |
| --- | --- | --- |
| PVPTGFFNMWGFGRVSKQASQPVK [WDR41] | 2.84 ± 0.25 | 2.8 ± 0.21 |
| PVYSVPQLLSAMGSLCSLWFGASV [SCNN1D] | 3.06 ± 0.056 | 3.37 ± 0.59 |
| PYLRGTIKMMQAVRQAFQDQDDRR [GFOD1] | 3.32 ± 0.17 | 3.56 ± 0.34 |
| QADLELIESAHRSRIKVLETSYQQ [FBF1] | 5.22 ± 0.16 | 5.11 ± 0.12 |
| QAEKRAAEKVSEARKRKNRRLKQA [ATP6V1G1] | 5.47 ± 0.51 | 5.33 ± 0.41 |
| QAELQELEERLQLQFEAEMARLQE [MTUS2] | 4.78 ± 0.38 | 4.72 ± 0.29 |
| QAWVQKHHPENGEETVTMLEDVER [ZNF396] | 5.1 ± 0.32 | 5.39 ± 0.17 |
| QCDKRFRWSSDLNKHLTTHQGIKP [ZNF75A] | 3.02 ± 0.12 | 2.97 ± 0.24 |
| QCPMRVQKEVAGFVLNRLQYAIIS [CRYL1] | 3 ± 0.78 | 2.38 ± 1 |
| QDAVDQVKVIMDALDERAKVLHED [TRIM29] | 4.93 ± 0.1 | 4.93 ± 0.34 |
| QDTLELESPSLTSTPVCSQKVVVT [MYBL2] | 4.59 ± 0.18 | 4.63 ± 0.11 |
| QEILELIDREVDLMMRGVKHHNLE [IQUB] | 2.67 ± 0.46 | 2.64 ± 0.5 |
| QELQARLQTVTREKEELLQLSIER [CCDC89] | 4.38 ± 0.35 | 4.32 ± 0.1 |
| QELVDYVNARQKQGIYEEYEDIRR [PTPN9] | 3.88 ± 0.24 | 3.86 ± 0.2 |
| QEQIEAVLLNSLQQYRQDQRDGSK [CCND2] | 4.51 ± 0.086 | 4.46 ± 0.13 |
| QESSFRSRKIAVEDENDLEELNNG [MIA2] | 5.32 ± 0.92 | 5.48 ± 0.15 |
| QFILERGEYPRWDAWSGSNAYHIE [CRYBA1] | 2.31 ± 0.17 | 2.19 ± 0.18 |
| QGAKERAHQQKKHSGFEDELSEVL [CHGA] | 5.23 ± 0.25 | 5.27 ± 0.23 |
| QGEPLGYRQDDPSYRSFHSGGYGQ [CTNNB1] | 3.76 ± 0.48 | 3.96 ± 0.24 |
| QGLAEKSPLQTIGEEQTQNPYTEL [WDR41] | 5.3 ± 0.14 | 5.29 ± 0.13 |
| QGNKKEHVIHIIDFGLAKEYIDPE [CSNK1G1] | 2.5 ± 0.16 | 2.81 ± 0.24 |
| QGNSVDRMAAPRAEALFDFTGNSK [NCF4] | 4.7 ± 0.15 | 4.79 ± 0.17 |
| QGWVREHCPESGEEAVILLEDLER [ZSCAN9] | 4.36 ± 0.12 | 4.7 ± 0.28 |

| Sequence | protein stability index (treatment: DMSO) | protein stability index (treatment: MLN4924 1 uM, 8 h) |
| --- | --- | --- |
| QIKALNNKFASFIDKVRFLEQQNQ [KRT71] | 2.38 ± 0.1 | 2.59 ± 0.4 |
| QISIYGVKILEPKTKEVQHNCQLH [GULP1] | 2.58 ± 0.37 | 2.85 ± 0.39 |
| QITVKALPKPPGTPVVTESTATSI [PTPRD] | 4.62 ± 0.29 | 4.61 ± 0.091 |
| QKEVAGFVLNRLQYAIISEAWRLV [CRYL1] | 3.43 ± 0.53 | 3.37 ± 0.27 |
| QKRYQDWFQRQYLSTPDSQSLRCD [INTS3] | 2.96 ± 0.1 | 3.13 ± 0.17 |
| QLLLGRLFRWPDLQHAVELKPLCG [SMAD6] | 2.12 ± 0.19 | 2.36 ± 0.17 |
| QLQVTEREEVRGRELTGLKALYET [LMNB1] | 3.68 ± 0.18 | 3.98 ± 0.38 |
| QLSHIKAKIRAKIPGTGALASAAA [RTN2] | 3.07 ± 0.21 | 3.09 ± 0.41 |
| QLVLRTKEAFDTIQEQKVVLEENG [SASS6] | 4.45 ± 0.23 | 4.64 ± 0.46 |
| QLYGDAPGEVVPSGESGLRRRGSD [TMEM40] | 5.13 ± 0.18 | 5.19 ± 0.25 |
| QMAKKAEAFQLYQEAAQLDMLLEK [FLOT1] | 2.73 ± 0.36 | 3.21 ± 0.64 |
| QNLANEEVRKLTQRLEEMTQRMEA [MATN2] | 4.67 ± 0.14 | 4.87 ± 0.39 |
| QNLSRSWHDVQVSSAYVKTSEKLG [TPD52L2] | 3.98 ± 0.11 | 3.82 ± 0.21 |
| QNNQAKELERLIDKAMKKDGLVGM [FIS1] | 4.18 ± 0.19 | 4.3 ± 0.12 |
| QNQVDELERKFRCQQEQLFQTRQE [LRRC45] | 5.04 ± 0.22 | 5.02 ± 0.12 |
| QPGAGFGMPPAGTGMPMMPQQPVM [SNAP91] | 3.71 ± 0.26 | 3.84 ± 0.3 |
| QPLRTPRDEAIYECVASNNVGEIS [PTPRD] | 4.88 ± 0.23 | 5.13 ± 0.12 |
| QPPEMIGPMRPEQFSDEVEPATPE [GAGE1] | 5.03 ± 0.33 | 5.17 ± 0.17 |
| QPQDVDLALDSGASLLHLAVEAGQ [RIPK4] | 4.44 ± 0.51 | 4.58 ± 0.71 |
| QPQQGYIPPMAQPGLPPVPGAPGM [ZNF207] | 4.36 ± 0.068 | 4.47 ± 0.28 |
| QQCQYRWLRVLNPDLVKGPWTKEE [MYBL2] | 2.83 ± 0.38 | 2.9 ± 0.29 |
| QQQEPPLAMGTVSLGQLPLPPIPH [PLAGL1] | 4.33 ± 0.14 | 4.35 ± 0.15 |
| QQRLAHLEDKLRLLAQARDEAQGA [LRRC45] | 4.29 ± 0.28 | 4.37 ± 0.36 |

| Sequence | protein stability index (treatment: DMSO) | protein stability index (treatment: MLN4924 1 uM, 8 h) |
| --- | --- | --- |
| QQRLQGQLCDVSIRVQGREFRAHR [ZBTB22] | 3.34 ± 0.42 | 3.81 ± 0.5 |
| QRFGEALQDQEKAWGFPENATAPR [ELOA2] | 4.78 ± 0.23 | 4.68 ± 0.46 |
| QRHRDILQVIYWARDVFIITGVWV [GOSR1] | 2.72 ± 0.72 | 2.25 ± 0.73 |
| QRPADVPEPGRAGYPAPRDEGVLR [HAGHL] | 4.85 ± 0.32 | 4.84 ± 0.15 |
| QRVEKDMKKAKEQLKIRKSNQIPT [FUNDC2] | 4.58 ± 0.32 | 4.56 ± 0.26 |
| QSAQIACSSPSVVASLPLDQSDEG [MAGEA10] | 5.5 ± 0.45 | 5.236 ± 0.029 |
| QSEERKRIDELIESGKEEGMKIDL [KMT5A] | 5.583 ± 0.004 | 5.5 ± 0.13 |
| QSFGRLSLQPQQQQQRQRPPRPPP [N4BP2L1] | 4.64 ± 0.2 | 4.6 ± 0.32 |
| QSLRDLGVKISEQQAEKILKSMDK [SLC25A25] | 4.12 ± 0.28 | 4.19 ± 0.35 |
| QTLLPAACLLQLAEIQEACCEFLK [KLHL20] | 2.21 ± 0.31 | 2.36 ± 0.15 |
| QVGTMALWASQREKEVLRRERAVE [ZBED2] | 4.11 ± 0.26 | 4.31 ± 0.18 |
| QVLPDSESLPRSEIDEKVTDLVQF [MAGEA10] | 5.03 ± 0.3 | 4.99 ± 0.35 |
| QVNEINFENMSNDDAVRVLREIVH [DVL3] | 3.01 ± 0.16 | 3.09 ± 0.37 |
| QWQDLMSIMEMQAMEVNTSASEIL [NFE2L1] | 2.88 ± 0.45 | 2.86 ± 0.4 |
| RAGVQWKFAGSFYFAITVITTIGY [KCNK9] | 3.03 ± 0.064 | 3.11 ± 0.4 |
| RALSEYLAVFARCLAGCEGAHEQV [P3H4] | 2.62 ± 0.86 | 2.89 ± 0.91 |
| RALVRQFGQQDWKFLASHFPNRTD [MYBL2] | 3.09 ± 0.41 | 2.93 ± 0.19 |
| RASGEHVTDEEIESLMKDGDKNND [TNNC2] | 5.66 ± 0.12 | 5.68 ± 0.2 |
| RATSLGRPEEEEDELAHRCSSFMA [CPOX] | 4.68 ± 0.33 | 4.71 ± 0.17 |
| RAWEVDWFSLASVIFLLLFAPFIV [DHCR7] | 2.43 ± 0.45 | 2.65 ± 0.57 |
| RCVSFQARFAEKEELMLVHSLEYI [HDAC6] | – | 2.19 ± 0.3 |
| RDLLGALKHWRRAMELRHQGGEYL [FEM1A] | 2.46 ± 0.2 | 2.5 ± 0.45 |
| RDPFECNMCGYHSQDRYEFSSHIT [IKZF1] | 2.33 ± 0.4 | 2.33 ± 0.59 |

| Sequence | protein stability index (treatment: DMSO) | protein stability index (treatment: MLN4924 1 uM, 8 h) |
| --- | --- | --- |
| RELGRLRQQVTNHGRGTEVLLEEP [ZNF263] | 4.7 ± 0.39 | 4.58 ± 0.33 |
| RESGAEPQEAVLQQLHQLPRGRLD [LRRC45] | 5.06 ± 0.3 | 5.16 ± 0.25 |
| RFPGRKQPGVHEEPVLKKWPKLKS [C22orf31] | 3.72 ± 0.49 | 3.57 ± 0.15 |
| RGAQGILLVYDITNRWSFDGIDRW [RAB40C] | 2.93 ± 0.91 | 2.79 ± 0.42 |
| RGEVPWSPELGRPHDRSQGDWAPP [ZNF263] | 4 ± 0.19 | 4.12 ± 0.35 |
| RIGKRPDLLTFVQNLCKGLSQPTT [NEUROD6] | 2.3 ± 0.22 | 2.17 ± 0.083 |
| RILWKKIQENQRNLYEEGRTAFLW [TRIM43] | 2.08 ± 0.36 | 2.31 ± 0.28 |
| RKEGIVKLKPHEEPLRSEILSGKF [PTPN9] | 4.16 ± 0.13 | 4.08 ± 0.14 |
| RKVTDSISKSLELCNEISLSEIKD [DLC1] | 4.136 ± 0.019 | 4.26 ± 0.11 |
| RLCAPLFRNIKQEPFSARVLVLCV [SOAT1] | 2.73 ± 0.84 | 2.85 ± 1.4 |
| RLDGQQEPQPFVTSDVYSSDAAFG [MYORG] | 4.56 ± 0.26 | 4.63 ± 0.14 |
| RLFEDVRSWMFRRGPLNSDRSDYF [TRIM43] | 2.54 ± 0.42 | 2.63 ± 0.13 |
| RLGRCMRRLRDMVERPHSGLPGKV [KCNG1] | 2.4 ± 0.17 | 2.69 ± 0.24 |
| RLLALIYLAHASDVLENAFAPLLD [GOLPH3] | 2.65 ± 0.48 | 2.7 ± 0.71 |
| RLLDHQDNILSLINVNDLSFVTGS [WDR41] | 2.22 ± 0.28 | 2.51 ± 0.3 |
| RLLGTAGTEEKKKLIRDFDEKQQE [VTI1B] | 5.06 ± 0.15 | 5.11 ± 0.33 |
| RMKETQKSIYYITGESKEQVANSA [HSP90AB1] | 4.07 ± 0.34 | 4.2 ± 0.25 |
| RMRYEGVVDIFQTVKMLRTQRPAM [PTPRD] | 2.18 ± 0.18 | 2.38 ± 0.29 |
| RNLAKRRRTYLGGAAGRSQEPEVP [RSPH3] | 4.38 ± 0.26 | 4.32 ± 0.2 |
| RPPTPLFIPAKTGKDVATQILEGE [RSPH3] | 4.82 ± 0.15 | 5.01 ± 0.11 |
